Experiment: label from the status in PepcDB records
With “RQLVSGRLEVAADGPHLVMPMLARLRASYPGITVNLRLGNAQETLAALLSEHVDVAVLTEVEARPGLFLEELVNSRICALLPRQHPWCERNEGVPLEELDQQIMVLREPGSITRRTFDRACAEQGVQPRVLLELDSREAVT” the protein production was “failed”. For “RRCQVHLLDDRKLELLVQPKLLAKELLDLVASHFNLKEKEYFGIAFTDETGHLNWLQLDRRVLEHDFPKKSGPVVLYFCVR”, the protein production was “failed”. In the case of “RRGWVREVTAEVWTGPLAPVADLAGDTGVVLSREADETWLARYQRKGVSEVALRVLESGPSVWFATVPGAEGADGAGGGGGVAAIGRCVVDGRWASFAAVEVDPAQRRRGLATAVMAALARRALDEGASAAWLQVETDNAGARALYAGMGFAAHHSYHHYREPAAAGTDR”, the protein production was “failed”. In the case of “RRRNQKRANAERERLRQIIDTIPQQVFVKDADGTYTLANKAAAAAHGVAVERLEGATHDEFALSDEQRDFKSDDAAVIENGESVHIEEDGLVEADGSSHTVQTDIVPIEIASGERRALVVATDIT”, the protein production was “failed”. For “RSIRLPETIDLGALYLSMKDTEKGIKELNLEKDKKIFNHCFTGNCVIDWLVSNQSVRNRQEGLMIASSLLNEGYLQPAGDMSKSAVDGTAENPFLDNPDAFYYFPDSGFFCEEN”, the protein production was “not failed”. In the case of “RSSEWLEKWQFVNGRFREHLQTISSEDVSFEGNLYRILQHLVPENSSLFVGNSMPIRDVDTFFEKQDRPFRIYSNRGANGIDGVVSSAMGVCEGTKAPVTLVIGDLSFYHDLNGLLAAKKLGIPLTVILVNNDGGGIFSFLPQASEKTHFEDLFGTPTGLDFKHAAALYGGTYSCPASWDEFKTAYAPQADKPGLHLIEIKTDRQSRVQLHRDMLNEAVREVKKQWEL”, the protein production was “failed”. With “RSTRQQAGREAEAFALQFLQQQGLRLIEQNWLCKRGELDLVMLDGDTVVFVEVRYRRHCGWGGAVESVDFRKQGKLVTAAQLFLQQVSCWADYPCRFDVIAIEGSPGSFD” the protein production was “failed”. For “RVGINQLVQHPALDAATTGFKEAFEEAGVDVTFDEQNANGEQGTALTISQQFASDNLDLVLAVATPAAQATAQNITDIPVLFTAVTDAVSAELVDSNEAPGGNVTGTSDIAPIEQQLELLQQLVPDAKSIGIVYASGEVNSQVQVDEVTKAAEPLGLSVNTQTVTTVNEIQQAVEALGDVDVIYVPTDNMVVSGISSLVQVAEQKQIPVIGAESGTVEGGALATLGIDYTELGRQTGEMALRILQDGEDPATMPVETATEFTYVINEDAAERQGVEIPQEILDKAERV”, the protein production was “not failed”. In the case of “SAAATGPSFWLGNETLKVPLALFALNRQRLCERLRKNPAVQAGSIVVLQGGEETQRYCTDTGVLFRQESFFHWAFGVTEPGCYGVIDVDTGKSTLFVPRLPASHATWMGKIHSKEHFKEKYAVDDVQYVDEIASVLTSQKPSVLLTLRGVNTDSGSVCREASFDGISKFEVNNTILHPEIVECRVFKTDMELEVLRYTNKISSEAHREVMKAVKVGMKEYELESLFEHYCYSRGGMRHSSYTCICGSGENSAVLHYGHAGAPNDRTIQNGDMCLFDMGGEYYCFASDITCSFPANGKFTADQKAVYEAVLRSSRAVMGAMKPGVWWPDMHRLADRIHLEELAHMGILSGSVDAMVQAHLGAVFMPHGLGHFLGIDVHDVGGYPEGVERIDEPGLRSLRTARHLQPGMVLTVEPGIYFIDHLLDEALADPARASFLNREVLQRFRGFGGVRIEEDVVVTDSGIELLTCVPRTVEEIEACMAGCDKAFTPFSGPK”, the protein production was “failed”. For “SAAHQMDSITYSNNVTQQYIQPQSLQDISAVEDEIQNKIEAARQESKQLHAQINKAKHKIQDASLFQMANKVTSLTKNKINLKPNIVLKGHNNKISDFRWSRDSKRILSASQDGFMLIWDSASGLKQNAIPLDSQWVLSCAISPSSTLVASAGLNNNCTIYRVSKENRVAQNVASIFKGHTCYISDIEFTDNAHILTASGDMTCALWDIPKAKRVREYSDHLGDVLALAIPEEPNSENSSNTFASCGSDGYTYIWDSRSPSAVQSFYVNDSDINALRFFKDGMSIVAGSDNGAINMYDLRSDCSIATFSLFRGYEERTPTPTYMAANMEYNTAQSPQTLKSTSSSYLDNQGVVSLDFSASGRLMYSCYTDIGCVVWDVLKGEIVGKLEGHGGRVTGVRSSPDGLAVCTGSWDSTMKIWSPGYQ”, the protein production was “failed”. In the case of “SAASQAGSNYPRCWNCGGPWGPGREDRFFCPQCRALQAPDPTRDYFSLMDCNRSFRVDTAKLQHRYQQLQRLVHPDFFSQRSQTEKDFSEKHSTLVNDAYKTLLAPLSRGLYLLKLHGIEIPERTDYEMDRQFLIEIMEINEKLAEAESEAAMKEIESIVKAKQKEFTDNVSSAFEQDDFEEAKEILTKMRYFSNIEEKIKLKKIPL”, the protein production was “not failed”. With “SAESSKLSATTVEAAPAMIKAKDVISPSEKEESDQTEITKVSVLKNLDEKEMIKEFADRLQRLEAKVDLLVTKADLLAIKADIQELLISAKGEKVPAMKTSAKASSESDDSYMDTSSEDESSSAEEPVNKPAASAAKPATKDSLFSAGFKPAAKDSLFSAGFKPDSLFSAGFEPAAKDSLFSAGFKPGSLFSAGFEPAAKDSLFSAGFKPDSLFSVGVKPAAKDSLFSVGVNGRSFSVTGFDASLPVDDIKSALSKYFSSFGEITRVFVPPSHGTGGSLGYAYIDLKEGAEKALELGRHDVGGWDLVVGKAEPIRSGSTWPFPGRCGNQGRCTFC” the protein production was “failed”. For “SAPFDVIGPQEPILAVVGEDAELPCRLSPNVSAKGMELRWFREKVSPAVFVSREGQEQEGEEMAEYRGRVSLVEDHIAEGSVAVRIQEVKASDDGEYRCFFRQDENYEEAIVHLKVAA”, the protein production was “failed”. With “SAQGLIEVERKFAPGPDTEERLQELGATLEHRVTFRDTYYDTSELSLMLSDHWLRQREGSGWELKCPGVTGVSGPHNEYVEVTSEAAIVAQLFELLGSGEQKPAGVAAVLGSLKLQEVASFITTRSSWKLALSGAHGQEPQLTIDLDSADFGYAVGEVEAMVHEKAEVPAALEKIITVSSMLGVPAQEEAPAKLMVYLQRFRPLDYQRLLEAASSGEATGDSAS” the protein production was “not failed”. For “SARFALTVVRHGETRFNKEKIIQGQGVDEPLSETGFKQAAAAGIFLNNVKFTHAFSSDLMRTKQTMHGILERSKFCKDMTVKYDSRLRERKYGVVEGKALSELRAMAKAAREECPVFTPPGGETLDQVKMRGIDFFEFLCQLILKEADQKEQFSQGSPSNCLETSLAEIFPLGKNHSSKVNSDSGIPGLAASVLVVSHGAYMRSLFDYFLTDLKCSLPATLSRSELMSVTPNTGMSLFIINFEEGREVKPTVQCICMNLQDHLNGLTETR”, the protein production was “not failed”. With “SASFVTSKRDFRARAHSNPLNDAEFLVPEDPLRFDWSPFIPDVGSHPIDYVDLGCGYGGLLCELSIAFPNKYMLGMEIRDRVASYCVTKLEELRRLNSKGYRNIGFIRTNCMKFLPFYFPPSSVEKFFICFPDPHFKKKKHRQRLVSLRFLSEAAYCLRPGGMIYIVTDVEELFAWMTNLFAQHPLFLTMDKELVKQQDVLLPYLLNHTDEAQRMKRRGQDTPYWNVFQRKTVFC” the protein production was “failed”. For “SATQIPSTISILATSDIHGNVLNYDYATGKAPTNTQGLAKVSSYVNSVRASKPNVMLIDDGDTIQGTPLSYYYDKIDTTSEYPLMKIMGAMKYDTWTLGNHEFNYGLPTLNRVISDARKENINVLSANTYNSDNTNFVNPYYIKTFNINGKTVNVGILGLTTKCIPDWEDPSHYAGLHFNDLVDEAKLWVPRMKAAGANVVIVAAHSGEEGAADTIPENQIKAIATNVSGIDAIVAGHAHVTVNDTSLKNPNGKTVPVVEPNKWGTFVSQIDITLDNSGNASTINTQNVKMTDSIPEDPNIVNIIQPYQNKTLDYIST”, the protein production was “failed”. With “SCDSIREDLPRCELWLEFVFDYNMEYADAFNPQVKSVDVLVFDSDDKLLFTKSVKVAALVGGNRMSLTDELDFGSYKVLTVGSLSDRFRLSDNAGNKLVPGTTTLQQVIVSLKRETGGVNFEFQHLYFGEVVEVDHLPSNTNHKIYPVNLIRDTNRFNLALMGYEENKVDGTQYTFEIQAPENAVYSWENEPTGQGPITYVPYYTGPGEISDVVMSARLNTMRLLNRSGWDYKFIIRDANTEAEVWSYNLMTLLSIARPVSRYDGTELPFQEYLDRQSEWNLVFTVVEKNGGGFLQIGIVVGTWIHWLHGMEV” the protein production was “not failed”. In the case of “SDCDIEGKDGKQYESVLMVSIDQLLDSMKEIGSNCLNNEFNFFKRHICDANKEGMFLFRAARKLRQFLKMNSTGDFDLHLLKVSEGTTILLNCTGQVKGRKPAALGEAQPTKSLEENKSLKEQKKLNDLCFLKRLLQEIKTCWNKILMGTKEH”, the protein production was “not failed”.

Source: a protein production outcome set (Wang et al. 2014)
